Patent US10314925B2, “Thymidine kinase” (priority 2004, dated 2019)
Residue numbers refer to the chain shown, from its start.

B1: TkMut4 (nucleic acid)
DNA: ATGGCTTCGTACCCCTGCCATCAACACGCGTCTGCGTTCGACCAGGCTGCGCGTTCTCGCGGCCATAGCAACCGACGTACGGCGTTGCGCCCTCGCCGGCAGCAAGAAGCCACGGAAGTCCGCCTGGAGCAGAAAATGCCCACGCTACTGCGGGTTTATATAGACGGTCCTCACGGGATGGGGAAAACCACCACCACGCAACTGCTGGTGGCCCTGGGTTCGCGCGACGATATCGTCTACGTACCCGAGCCGATGACTTACTGGCAGGTGCTGGGGGCTTCCGAGACAATCGCGAACATCTACACCACACAACACCGCCTCGACCAGGGTGAGATATCGGCCGGGGACGCGGCGGTGGTAATGACAAGCGCCCAGATAACAATGGGCATGCCTTATGCCGTGACCGACGCCGTTCTGGCTCCTCATGTCGGGGGGGAGGCTGGGAGTTCACATGCCCCGCCCCCGGCCCTCACCCTCATCTTCGACCGCCATCCCATCGCCGCCCTCCTGTGCTACCCGGCCGCGCGATACCTTATGGGCAGCATGACCCCCCAAGCCGTGCTGGCGTTCGTGGCCCTCATCCCGCCGACCTTGCCCGGCACAAACATCGTGTTGGGGGCCCTTCCGGAGGACAGACACATCGACCGCCTGGCCAAACGCCAGCGCCCCGGCGAGCGGCTTGACCTGGCTATGCTGGCCGCGATTCGCCGCGTTTACGGGCTGCTTGCCAATACGGTGCGGTATCTGCAGGGCGGCGGGTCGTGGTGGGAGGATTGGGGACAGCTTTCGGGGACGGCCGTGCCGCCCCAGGGTGCCGAGCCCCAGAGCAACGCGGGCCCACGACCCCATATCGGGGACACGTTATTTACCCTGTTTCGGGCCCCCGAGTTGCTGGCCCCCAACGGCGACCTGTATAACGTGTTTGCCTGGGCCTTGGACGTCTTGGCCAAACGCCTCCGTCCCATGCACGTCTTTATCCTGGATTACGACCAATCGCCCGCCGGCTGCCGGGACGCCCTGCTGCAACTTACCTCCGGGATGGTCCAGACCCACGTCACCACCCCAGGCTCCATACCGACGATCTGCGACCTGGCGCGCACGTTTGCCCGGGAGATGGGGGAGGCTAACTGA
modifications: HSV-1 thymidine kinase mutant sequence.
B2: TkMut2 (nucleic acid)
DNA: B1 DNA with T330C, A555G
modifications: HSV-1 thymidine kinase mutant sequence.
B3: TkMut234 (nucleic acid)
DNA: B1 DNA with T330C, A541T, G542C
modifications: HSV-1 thymidine kinase mutant sequence.
B4: TkMut24 (nucleic acid)
DNA: B1 DNA with T330C
modifications: HSV-1 thymidine kinase mutant sequence.
B5: TkMut34 (nucleic acid)
DNA: B1 DNA with A541T, G542C
modifications: HSV-1 thymidine kinase mutant sequence.

Assays:
[1] = tested on: circulating modified cells; details: six patients who developed GvHD and received ganciclovir; cited from earlier work
[2] = tested on: HSV-tk; assay: RT-PCR of HSV-tk mutants, RNA from Am12 supernatants; design: species or system HSV-1; details: for lower band (spliced form): TKA1/TKB1 primers
Text: After sequence confirmation of SFCMM-3 HSV-tk mutants (FIGS. 1A-1C), one plasmid clone of each type was used to transiently transfect E86 cells. SFCMM-3 and TK3 plasmids were used as controls. The supernatant was collected from the E86 cultures and used to stably transduce the amphotropic packaging cell line Am12 as described in Materials and Methods section of Example 2. The resulting cell populations were selected for ΔLNGFR expression.
RNA was extracted from the E86 as well as Am12 culture supernatants containing infectious retroviral particles. RT-PCR reactions were carried out on RNA from E86 and Am12 supernatants using TKA1 and TKB1 primers according to the protocol described in Materials and Methods section of Example 2.

[3] = tested on: HSV-tk; assay: PCR of genomic DNA from transduced CEM A301 cells; format: cell-based, HSV-1
Procedure: (§1) CEM A301 cells were cultured in RPMI 1640 (Hyclone) supplemented with 10% FBS (Hyclone) and 2 mM glutamine. CEM A301 cells were infected with Am12 culture supernatant containing SFCMM-3 HSV-tk mutants 2 and 234. The day before transduction 5×10^5 cells/ml were cultured. Transduction was then performed by one centrifugation cycle of retroviral vector particles on cells. After the transduction phase, cells were collected and the percentage of actually transduced cells evaluated by FACS analysis. PBLs from three different donors were transduced (as described in Materials and Methods section of Example 2) with Am12 supernatant containing SFCMM-3 HSV-tk mutant 2 as well as SFCMM-3.
(§2) The transduced cells were then sorted for ΔLNGFR expression and expanded a few days in culture.
One pellet for PCR analysis was prepared from the transduced non selected cells as well as from transduced selected cells as described in Materials and Methods section of Example 2. Genomic DNA was extracted from pellet cells and PCR reaction was carried out with TKA1 and TKB1 or TKY1 and TKY2 or TKZ1 and TKZ2 primers (as indicated in the table below) in a 25 μl reaction mixture containing 100-500 ng of genomic DNA, 1×PCR Buffer with 1.5 mM of MgCl2 (Applied Biosystems), […] of each dNTPs, 300 nM of each primer, 1.25 Units of AmpliTaq Gold (Applied Biosystems). The PCR cycling profile consisted of a first denaturation step for 15 min at 94° C. followed by 40 cycles with denaturation for 30 s at 94° C., annealing for 50 s at 60° C. and extension for 1 min at 72° C., and one final extension step of 10 min at 72° C., […] Ten microliters of amplified product were analyzed by agarose gel electrophoresis.

[4] = tested on: HSV-tk; assay: PCR of genomic DNA from transduced PBLs of three donors; format: cell-based, HSV-1; details: TKA1/TKB1 primers
Procedure: as §1, §2
One pellet for PCR analysis was prepared from the transduced non selected cells as well as from transduced selected cells as described in Materials and Methods section of Example 2. […] Ten microliters of amplified product were analyzed by agarose gel electrophoresis.

[5] = CEM A301, TKA1/TKB1 primers, before and after selection

Molecule | average decrease in absolute number of circulating modified cells [1] [%] | spliced product compared to TK3 and SFCMM-3 (ethidium bromide signal) [2] | lower band (spliced form) [2] | lower band (spliced form of HSV-tk gene) [3, 5] | lower band (spliced form of HSV-tk gene) ([3]; CEM A301, TKY1/TKY2 and TKZ1/TKZ2 primers) | lower band (spliced form of HSV-tk gene) [4] | additional bands [2]
Nc1nc(O)c2ncn(COC(CO)CO)c2n1 [ganciclovir] | 85 |  |  |  |  |  | 
B1 |  | less represented | lower band is detected |  |  |  | 
B2 |  |  | not detected | No lower band is observed | No lower band is observed | No lower band is observed | two very weak bands of approximately 100 and 200 bp are detected
B3 |  |  | not detected | No lower band is observed |  |  | two very weak bands of approximately 100 and 200 bp are detected
B4 |  |  | not detected |  |  |  | two very weak bands of approximately 100 and 200 bp are detected
B5 |  | less represented | lower band is detected |  |  |  | 
